Data set [1] has as its target Clo SugE. Format: binding, Clostridiales bacterium oral taxon 876.
Substrate in data set [2]: NC(N)=O
The experiment in a line: purified protein.

Substrate in data set [3]: N=C(N)N
Description: purified protein.

As a reminder, the Kd is a measure of binding affinity in units of concentration. Lower therefore signals tighter binding. Consider `N=C(N)N` [guanidine], for which the Kd in data set [1] was ~1000 µM.

B1: urea carboxylase (guanidine carboxylase) (Oleomonas sagaranensis) (protein)
chain: MFKKILIANRGEIAARVIKTARKMGIATVAVHSEADRFTLPVLAADEAICLGPAPAKESYLRAEAIVQACIDTGAEAVHPGYGFLSENAGFAEALAAKGIRFIGPRPEHLRDFGLKHTARALAEAAGVPLLPGTGILLSAEEALAAAHEIGYPVMLKSTAGGGGIGMSLCHDASELQARFEAVQRMASSSFGDARVYIERFVSTARHVEVQIFGDGKGNVVALGERDCSLQRRNQKVVEETPAPGLSPELRARLHAAAVALGKAVAYESAGTVEFIYDVARGDFSFLEVNTRLQVEHPVTESVFGVDLVEWMIRQAAGELLLPAQGSLVPRGAAIEVRLYAENPQANFRPQTGRLTEVAFPDDIRVDTWVATGTEVTPFYDPMLAKVIVTGADRPAAIAALSDALAKTKVWGIETNLAYLRAIAASDVFTSGAVSTAALGQFVFTAPTIEVIVAGAQTSVQDWPGRLGLWDVGVPPSGPFDDRSFRLANRILGNAEGAAGLECTLSGPTLKFHGDALIALAGAEMPAALDGVAVPMLTAIPVKAGQTLSLGQIKGAGQRTYLAVRGGIDGPKFLGARACFSLGQFGGHATGVLKAGDTLHIAAETAGEPMPADEKPLITRDWVIGVHYGPHGAPDFFQDADIDDLFAATYEVHFNSARTGVRLIGPKPRWARADGGEAGLHPSNIHDNAYAIGAIDFTGDMPIILGPDGPSLGGFVCPAVIARDELWKAGQLKPGDKVRFVPHGMAAPQVITSKDIGTPILGTIDGGPVPVVYRRAGDDYLLVEYGPMVLDIALRLRIHLLAQAVREARLPAIIDLTPGIRSLQIHYDSRVLKTATLVAALREIEAGLPPAEAVKVPSRIVHLPLSWNDPSIQLAARKYQELVRPNAPWCPSNIEFIRRINGLGSVDDVQNIIFDASYLVLGLGDVYLGAPVATPVDPRHRLVTTKYNPARTWTPENAVGIGGAYMCIYGMEGPGGYQLFGRTVQMWNAWRTTPVFTPGHPWLLRFFDQIRFFPVSEQELIEAREAFPHGRYPVRIEETTFDYAQHAAFLAAERPAIEAAKARQQTAFEVERQDWKARGLDSFVVEDGPAASDADVPEGQTPVEAQVTGNVWKIIAEEGTNVAAGDIVVIVESMKMEMEIRSPVAGKVTALRCQPGRTVQAGQIVALIEAA
In general, Km refers to the substrate concentration at which the rate is half of its maximum. Regarding B1, the Km turned out to be 5200 µM in data set [2] and 190 µM in data set [3].
